PMC13140594, “Characterization of high affinity IgM and IgG monoclonal antibodies against norovirus variants GII.4 and GII.17” (Protein Science : A Publication of the Protein Society, 2026)

Columns and labels:
Settings in all cases: both partners purified
[1] = target: T1, norovirus GII.17 P‐domain (Norovirus GII.17, GenBank AKI30060 …, strain); experiment: SPR; Biacore 8K; antibody immobilised, P-domain as analyte; 1:1 kinetic model
T1 construct: Cloned into a modified pMAL-c6T vector; also called P‐domain of GII.17 strain; norovirus P‐domain GII.17 strain; source: E. coli BL21 (DE3), purified (Ni-NTA Agarose, SEC Superdex 75)
T1 chain: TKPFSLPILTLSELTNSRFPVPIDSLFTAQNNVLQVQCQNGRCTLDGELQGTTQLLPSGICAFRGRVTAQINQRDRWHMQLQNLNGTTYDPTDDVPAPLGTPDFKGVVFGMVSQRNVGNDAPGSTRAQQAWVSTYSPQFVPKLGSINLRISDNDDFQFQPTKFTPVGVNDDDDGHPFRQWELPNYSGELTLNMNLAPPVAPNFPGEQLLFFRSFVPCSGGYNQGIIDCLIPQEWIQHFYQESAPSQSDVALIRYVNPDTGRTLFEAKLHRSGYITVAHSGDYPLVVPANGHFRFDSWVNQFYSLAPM

[2] = target: T1, norovirus GII.17 P‐domain; experiment: SPR; Biacore 8K; P-domain immobilised on CM5 by amine coupling, antibody as analyte; PBST, 30 uL/min, 180 s association, 600 s dissociation; 1:1 kinetic model
[3] = target: T1, norovirus GII.17 P‐domain; experiment: SPR; GII.17 P-domain immobilised on CM5 at 138 r.u., antibody as analyte; PBST; 1:1 kinetic model
[4] = target: T1, norovirus GII.17 P‐domain; experiment: SPR; GII.17 P-domain immobilised on CM5 at 458 r.u., antibody as analyte; PBST; 1:1 kinetic model
[5] = target: T1, norovirus GII.17 P‐domain; experiment: SPR; GII.17 P-domain immobilised on CM5 at 922 r.u., antibody as analyte; PBST; 1:1 kinetic model
[6] = target: T1, norovirus GII.17 P‐domain; experiment: SPR; GII.17 P-domain immobilised on CM5 at 1059 r.u., antibody as analyte; PBST; 1:1 kinetic model
[7] = target: T1, norovirus GII.17 P‐domain; experiment: SPR; GII.17 P-domain immobilised on CM5 at 3830 r.u., antibody as analyte; PBST; 1:1 kinetic model
[8] = target: T1, norovirus GII.17 P‐domain; experiment: SPR; GII.17 P-domain immobilised on CM5 at 4577 r.u., antibody as analyte; PBST; 1:1 kinetic model

B1: 14C2 IgG (antibody, V domains shown)
VH: QAYLQQSGAELMKPGASMRISCKATGYTFSNYWIEWVKQRPGHGLEWIGEILPGGGGTDYNEKFKGKATFTADTSSNTAYMQLSSLTSEDSAVYYCARSTFYGYDGGLYYFPMDYWGQGTSVTVSP
VL: DIVMTQSPAIMSASPGEKVTMTCSTNSSISYMHWYQQKPGTSPKRWIYDTSKLASGVPARFSGSGSGTSYSLTISSMEAEDAATYYCHQRSSYPWTFGGGTKLEIK
notes: variable domain of the heavy chain of 14C2; light chain of 14C2; Mouse IgG2b; also called IgG antibody 14C2; source: mouse hybridoma supernatant, purified (HiTrap Protein G HP, SEC Superdex 200); copies: 2 + 2
[1]
  Kd: 1.55 nM
  koff: 0.000129 s⁻¹
  kon: 82900 M⁻¹ s⁻¹
[2]
  Kd: 0.000921 nM
  koff: 1.07e-07 s⁻¹
  kon: 116000 M⁻¹ s⁻¹

B2: 1‐arm IgG (Fab region of IgG antibody 14C2) (Fab, V domains shown)
VH: B1 VH
VL: B1 VL
notes: Fab region of the heavy chain of 14C2; light chain of 14C2; gene codon-optimised for mammalian cells; also called 14C2 Fab; source: Expi293 cells, purified (Ni-NTA Agarose, SEC Superdex 75); not shown: His tag (inferred from the Ni-NTA purification)
[3]
  Kd: 170 nM
  koff: 0.0025 s⁻¹
  kon: 14700 M⁻¹ s⁻¹
[4]
  Kd: 241 nM
  koff: 0.00246 s⁻¹
  kon: 10200 M⁻¹ s⁻¹
[5]
  Kd: 281 nM
  koff: 0.0024 s⁻¹
  kon: 8550 M⁻¹ s⁻¹
[6]
  Kd: 204 nM
  koff: 0.00297 s⁻¹
  kon: 14600 M⁻¹ s⁻¹
[7]
  Kd: 135 nM
  koff: 0.0034 s⁻¹
  kon: 25100 M⁻¹ s⁻¹
[8]
  Kd: 167 nM
  koff: 0.0026 s⁻¹
  kon: 15600 M⁻¹ s⁻¹
